Substitutions are numbered along the chain they refer to.
B1: Example 986 (peptide)
chain: YXQGTFTSDXSQXLDXKAQXAFIEYLIAGGPSSGEPPPSGTEEE
modifications: synthetic construct; SITE 2: note = 2-Aminoisobutyric Acid; SITE 10: note = 3-(4-Pyridyl)-L-alanine; SITE 13: note = alpha-methyl-leucine; SITE 16: note = L-ornithine; SITE 17: note = Lysine is chemically modified through conjugation of the epsilon-amino group of the Lysine side chain with (gamma-Gl)
B2: Example 995 (peptide)
chain: YXQGTFTSDXSXXLDXKAQXQFIEXLLAGGPSSGAPPPSGSEE
modifications: non-natural residues, (γGlu)2-diacid acylated Lys, C-terminal amide; synthetic construct; SITE 2: note = 2-Aminoisobutyric Acid; SITE 10: note = 3-(4-Pyridyl)-L-alanine; SITE 12: note = L-ornithine; SITE 13: note = alpha-methyl-leucine; SITE 16: note = L-ornithine; SITE 17: note = Lysine is chemically modified through conjugation of the epsilon-amino group of the Lys
B3: Example 996 (peptide)
chain: B2 chain with Q21E
modifications: acylated lysine (γ-Glu)2 C18 diacid; non-natural residues; C-terminal amide; synthetic construct; SITE 2: note = 2-Aminoisobutyric Acid; SITE 10: note = 3-(4-Pyridyl)-L-alanine; SITE 12: note = L-ornithine; SITE 13: note = alpha-methyl-leucine; SITE 16: note = L-ornithine; SITE 17: note = Lysine is chemically modified through conjugation of the epsilon-amino group of the Lys
B4: Example 997 (peptide)
chain: B2 chain with Q21X
modifications: non-natural residues; lipidated Lys (γGlu)2-C18 diacid; C-term amide; synthetic construct; SITE 2: note = 2-Aminoisobutyric Acid; SITE 10: note = 3-(4-Pyridyl)-L-alanine; SITE 12: note = L-ornithine; SITE 13: note = alpha-methyl-leucine; SITE 16: note = L-ornithine; SITE 17: note = Lysine is chemically modified through conjugation of the epsilon-amino group of the Lys
B5: Example 96 (peptide)
chain: YXQGTFTSDFSXXLDKKAQXQFIEYLLAGGPSSGAPPPEGS
modifications: synthetic construct; SITE 2: note = 2-Aminoisobutyric Acid; SITE 12: note = L-ornithine; SITE 13: note = alpha-methyl-leucine; SITE 17: note = Lysine is chemically modified through conjugation of the epsilon-amino group of the Lysine side chain with (2-[2-(2-Amino-ethoxy)-ethoxy]-acetyl)-(gamma-Glu)
B6: Example 977 (peptide)
chain: YXQGTFTSDXSQXLDXKAQXAFIEYLIAGGPSSGEPPPSGSE
modifications: synthetic construct; SITE 2: note = 2-Aminoisobutyric Acid; SITE 10: note = 3-(4-Pyridyl)-L-alanine; SITE 13: note = alpha-methyl-leucine; SITE 16: note = L-ornithine; SITE 17: note = Lysine is chemically modified through conjugation of the epsilon-amino group of the Lysine side chain with (gamma-Gl)
B7: Example 980 (peptide)
chain: B6 chain with Q12X, X16K, S41T
modifications: synthetic construct; SITE 2: note = 2-Aminoisobutyric Acid; SITE 10: note = 3-(4-Pyridyl)-L-alanine; SITE 12: note = L-ornithine; SITE 13: note = alpha-methyl-leucine; SITE 17: note = Lysine is chemically modified through conjugation of the epsilon-amino group of the Lysine side chain with (gamma-Gl)
B8: Example 984 (peptide)
chain: B6 chain with Q12X, S41T
modifications: Aib, 4Pal, Orn, αMeL, Me4Pal; (γGlu)2-C18 diacid on Lys; amide; synthetic construct; SITE 2: note = 2-Aminoisobutyric Acid; SITE 10: note = 3-(4-Pyridyl)-L-alanine; SITE 12: note = L-ornithine; SITE 13: note = alpha-methyl-leucine; SITE 16: note = L-ornithine; SITE 17: note = Lysine is chemically modified through conjugation of the epsilon-amino group of the Lys

Columns and labels:
Assay in all cases: cell-based or functional assay
[1] = target: human glucagon receptor (human) (UniProt P47871)
[2] = target: T1, human GIP receptor (human) (UniProt P48546)
T1 sequence (looked up): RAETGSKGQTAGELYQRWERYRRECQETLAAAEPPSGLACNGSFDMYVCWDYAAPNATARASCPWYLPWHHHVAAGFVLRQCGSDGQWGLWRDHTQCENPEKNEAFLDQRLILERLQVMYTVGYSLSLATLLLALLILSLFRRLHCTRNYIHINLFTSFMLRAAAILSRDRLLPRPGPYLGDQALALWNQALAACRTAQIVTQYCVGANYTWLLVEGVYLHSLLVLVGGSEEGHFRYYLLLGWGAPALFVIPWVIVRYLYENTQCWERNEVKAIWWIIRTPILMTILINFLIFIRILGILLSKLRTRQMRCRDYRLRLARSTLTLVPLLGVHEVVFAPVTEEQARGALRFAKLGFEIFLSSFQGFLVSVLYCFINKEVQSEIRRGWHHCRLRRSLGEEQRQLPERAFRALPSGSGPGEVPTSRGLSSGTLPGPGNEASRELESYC

hGLP-1R = hGLP-1R (Homo sapiens, UniProt P43220)
Chain of hGLP-1R (P43220 24-463): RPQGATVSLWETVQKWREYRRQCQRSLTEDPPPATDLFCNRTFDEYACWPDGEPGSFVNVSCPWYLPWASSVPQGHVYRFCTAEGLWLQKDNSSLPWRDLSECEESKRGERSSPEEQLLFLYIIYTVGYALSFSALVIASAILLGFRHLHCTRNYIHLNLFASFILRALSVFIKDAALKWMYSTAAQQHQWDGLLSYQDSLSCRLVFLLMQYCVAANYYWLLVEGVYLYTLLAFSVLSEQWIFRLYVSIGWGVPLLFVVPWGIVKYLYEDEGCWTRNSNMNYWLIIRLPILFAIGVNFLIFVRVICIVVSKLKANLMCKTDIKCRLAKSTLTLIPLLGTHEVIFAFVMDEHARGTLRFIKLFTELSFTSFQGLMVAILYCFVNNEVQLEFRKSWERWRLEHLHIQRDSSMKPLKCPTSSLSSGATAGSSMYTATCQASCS

Chain of human glucagon receptor (human) (P47871 26-477): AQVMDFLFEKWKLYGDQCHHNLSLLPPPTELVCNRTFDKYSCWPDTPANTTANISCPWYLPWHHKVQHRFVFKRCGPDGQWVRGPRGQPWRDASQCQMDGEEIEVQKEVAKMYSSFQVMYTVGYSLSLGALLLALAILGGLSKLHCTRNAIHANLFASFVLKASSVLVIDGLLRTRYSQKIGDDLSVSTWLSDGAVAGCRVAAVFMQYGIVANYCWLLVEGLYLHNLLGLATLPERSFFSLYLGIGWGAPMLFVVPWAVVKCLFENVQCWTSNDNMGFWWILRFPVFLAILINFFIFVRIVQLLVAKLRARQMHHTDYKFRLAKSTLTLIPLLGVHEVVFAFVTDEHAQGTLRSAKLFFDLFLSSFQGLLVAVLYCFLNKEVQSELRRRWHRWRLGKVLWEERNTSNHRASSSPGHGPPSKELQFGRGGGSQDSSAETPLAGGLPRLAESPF

Binder | Relative cAMP EC50 [1] [nM] | cAMP Rel EC50, nM (1% HSA) [1] [nM] | Relative cAMP EC50 [2] [nM] | cAMP Rel EC50, nM (1% HSA) [2] [nM] | Relative cAMP EC50 (hGLP-1R) [nM] | cAMP Rel EC50, nM (1% HSA) (hGLP-1R) [nM] | cAMP Rel EC50, nM (in the presence of 1% HSA) [1] [nM] | cAMP Rel EC50, nM (in the presence of 1% HSA) [2] [nM] | cAMP Rel EC50, nM (in the presence of 1% HSA) (hGLP-1R) [nM]
B1 | 4.94 | 702 | 0.299 | 31.3 | 3.06 | 380 |  |  | 
B2 |  | 295 |  | 6.12 |  | 1660 |  |  | 
B3 |  | 1160 |  | 11.2 |  | 4810 |  |  | 
B4 |  | 527 |  | 27.8 |  | 1880 |  |  | 
B5 | 14.1 |  | 0.456 |  | 3.92 |  | 2150 | 49.3 | 836
B6 | 7.18 | 839 | 0.189 | 23 | 1.1 | 159 |  |  | 
B7 | 2.41 | 239 | 0.18 | 15.4 | 2.26 | 290 |  |  | 
B8 | 4.5 | 409 | 0.232 | 23.5 | 2.07 | 160 |  |  | 

Reference: patent US20240270821A1, “GIP/GLP1/GCG TRI-RECEPTOR AGONISTS AND USES THEREOF” (priority 2023, published 2024)
